Experimental data taken from IntAct's records for PubMed 33368531.

B1: Centriole and centriolar satellite protein OFD1 (Homo sapiens), O75665 (parent)
chain: MMAQSNMFTVADVLSQDELRKKLYQTFKDRGILDTLKTQLRNQLIHELMHPVLSGELQPRSISVEGSSLLIGASNSLVADHLQRCGYEYSLSVFFPESGLAKEKVFTMQDLLQLIKINPTSSLYKSLVSGSDKENQKGFLMHFLKELAEYHQAKESCNMETQTSSTFNRDSLAEKLQLIDDQFADAYPQRIKFESLEIKLNEYKREIEEQLRAEMCQKLKFFKDTEIAKIKMEAKKKYEKELTMFQNDFEKACQAKSEALVLREKSTLERIHKHQEIETKEIYAQRQLLLKDMDLLRGREAELKQRVEAFELNQKLQEEKHKSITEALRRQEQNIKSFEETYDRKLKNELLKYQLELKDDYIIRTNRLIEDERKNKEKAVHLQEELIAINSKKEELNQSVNRVKELELELESVKAQSLAITKQNHMLNEKVKEMSDYSLLKEEKLELLAQNKLLKQQLEESRNENLRLLNRLAQPAPELAVFQKELRKAEKAIVVEHEEFESCRQALHKQLQDEIEHSAQLKAQILGYKASVKSLTTQVADLKLQLKQTQTALENEVYCNPKQSVIDRSVNGLINGNVVPCNGEISGDFLNNPFKQENVLARMVASRITNYPTAWVEGSSPDSDLEFVANTKARVKELQQEAERLEKAFRSYHRRVIKNSAKSPLAAKSPPSLHLLEAFKNITSSSPERHIFGEDRVVSEQPQVGTLEERNDVVEALTGSAASRLRGGTSSRRLSSTPLPKAKRSLESEMYLEGLGRSHIASPSPCPDRMPLPSPTESRHSLSIPPVSSPPEQKVGLYRRQTELQDKSEFSDVDKLAFKDNEEFESSFESAGNMPRQLEMGGLSPAGDMSHVDAAAAAVPLSYQHPSVDQKQIEEQKEEEKIREQQVKERRQREERRQSNLQEVLERERRELEKLYQERKMIEESLKIKIKKELEMENELEMSNQEIKDKSAHSENPLEKYMKIIQQEQDQESADKSSKKMVQEGSLVDTLQSSDKVESLTGFSHEELDDSW

Variants of: B1
Conditions: with gbrap_human GABARAP

Variant | effect of a mutation on the interaction
Y961A;I964A | disrupting interaction

Variants of: B1
Conditions: with mlp3b_human MAP1LC3B

Variant | effect of a mutation on the interaction
Y961A;I964A | disrupting interaction

Variants of: B1
Conditions: with gbrap_human GABARAP
Remark: another data set of the same source

Variant | effect of a mutation on the interaction
Y961A;I964A | disrupting interaction
